Here are results for 4 molecules from publication PMC9581967, “Helical ultrastructure of the metalloprotease meprin α in complex with a small molecule inhibitor” (Nature Communications, 2022).

Series [1] has as its target meprin α R372A (human (from the printed accession Q16819)) (UniProt Q16819). Briefly: electron microscopy; variants imaged, concentration not stated (below the high concentration of 3 µM); N counts subunits.
The target is the same in series [2]. Briefly: mass photometry; single-molecule mass measurement, 20 °C; low concentration (10 nM in the results, roughly 2-5 nM in the methods); association of homodimers through the helical interface; N counts subunits.
The target of series [3] is meprin α R372T (human (from the printed accession Q16819)) (UniProt Q16819). Briefly: electron microscopy; variants imaged, concentration not stated (below the high concentration of 3 µM); N counts subunits.
The target is the same in series [4]. Briefly: MALDI-TOF mass spectrometry; linear positive mode, DHAP matrix; shows only covalently (disulphide) linked species; N counts subunits.
For series [5], the target named is meprin α wild type (V22-S600 construct; zymogen or activated form not told for the experiment) (human (from the printed accession Q16819)) (UniProt Q16819). The description is as above.
Series [6] concerns the molecule itself. Briefly: cryo-EM structure; meprin α alone (zymogen or active form), helical filament of covalent homodimers; 30 mM Tris, 100 mM NaCl, pH 7.4; pseudo single-particle analysis of filament segments.

As to “meprin α R372A (from UniProt Q16819 22-600) (enzyme)”, the stoichiometry N – broadly, the number of molecules, sites or subunits per partner or assembly – in series [1] came to 2; in series [2], 4. For the molecule “meprin α R372T (from UniProt Q16819 22-600) (enzyme)”, the stoichiometry N in series [3] and in series [4] was 2 in each case. “meprin α wild type (V22-S600 construct; zymogen or activated form not told for the experiment) (from UniProt Q16819 22-600) (enzyme)” displayed a stoichiometry N in series [5] of 2.

B1: pro-meprin α (V22-S600), wild type zymogen (enzyme, UniProt Q16819 22-600, looked up)
chain: VPIKYLPEENVHDADFGEQKDISEINLAAGLDLFQGDILLQKSRNGLRDPNTRWTFPIPYILADNLGLNAKGAILYAFEMFRLKSCVDFKPYEGESSYIIFQQFDGCWSEVGDQHVGQNISIGQGCAYKAIIEHEILHALGFYHEQSRTDRDDYVNIWWDQILSGYQHNFDTYDDSLITDLNTPYDYESLMHYQPFSFNKNASVPTITAKIPEFNSIIGQRLDFSAIDLERLNRMYNCTTTHTLLDHCTFEKANICGMIQGTRDDTDWAHQDSAQAGEVDHTLLGQCTGAGYFMQFSTSSGSAEEAALLESRILYPKRKQQCLQFFYKMTGSPSDRLVVWVRRDDSTGNVRKLVKVQTFQGDDDHNWKIAHVVLKEEQKFRYLFQGTKGDPQNSTGGIYLDDITLTETPCPTGVWTVRNFSQVLENTSKGDKLQSPRFYNSEGYGFGVTLYPNSRESSGYLRLAFHVCSGENDAILEWPVENRQVIITILDQEPDVRNRMSSSMVFTTSKSHTSPAINDTVIWDRPSRVGTYHTDCNCFRSIDLGWSGFISHQMLKRRSFLKNDDLIIFVDFEDITHLS
modifications: N-linked glycosylations
notes: meprin α, UniProt Q16819, residues V22-S600 (native signal peptide omitted, stop codon after S600; lacks the EGF-like and transmembrane regions); pro-peptide still on the chain; Disulphide-linked (C308) homodimer; the homodimers join non-covalently into a helical filament; Secreted through the BiP signal peptide of pMT/BiP/V5; also called latent state; meprin α ectodomain; source: Schneider-2 …
Regarding B1, the binding result in series [6] was “binds”.
